From patent US20260258115A1 (MAPP BIOPHARMACEUTICAL, published 2026) come the findings set out here.

Numbering of substitutions follows the chain as printed.

For one experiment, the target named is RSV F on RSV-A2 virus (Respiratory syncytial virus, RSV-A2, UniProt P03420 26-574). The experiment can be described thus: cell-based or functional assay.
The target in experiment [1] is RSV prefusion F (preF), DS-Cav1 (Respiratory syncytial virus, UniProt P03420 26-513). Description: BLI, IgG on anti-human IgG sensor, 100 nM antigen. On the technique in general: BLI is a label-free optical method that tracks binding on a fibre tip over time.
Experiment [2] addresses RSV postfusion F (postF), F ΔFP (Respiratory syncytial virus, UniProt P03420 26-513). Description: BLI, IgG on anti-human IgG sensor, 100 nM antigen.

B1: ADI-41579 (antibody, V domains shown)
VH: QVQLVESGAEARKPGSSVKVSCKLSGGTFSTDPISWVRQAPGQGLEWMGRIIPLLGIANYAQKFQGRVTIIADKSTSTVYMELRNLRFEDTAVYFCARRGDGYYGMDVWGQGTTVTVSS
VL: QSVLTQPASVSGSPGQSITISCTGTSNDIGGYDYVSWYQQHPGKAPKLMIYDVHNRPSGVSNRFSGSKSGNTASLTISGLQAEDEADYYCSSFSDSGNLYVFGTGTKLTVL
Usually Kd stands for the concentration at which binding is half-saturated. As for B1, the “Neutralization IC50 (RSV subtype A)” value with RSV F on RSV-A2 virus amounted to 0.209 µg/mL. The Kd in experiment [1] turned out to be 0.471 nM; in experiment [2] it was 0.36 nM.

B2: ADI-41581 (antibody, V domains shown)
VH: EVQLLESGSELKKPGASVKISCKTSGYTFTNYLMNWVRQAPGQGLEWMGWINTHTGNPTYAQDFTGRFVFSLDTSVNTAYLQISSLKAEDTAIYYCARDGLEAFSGYNGVDYWGQGTLVTVSS
VL: DIVMTQTPLSLPVTPGEPASISCRSSPSLLHSNGYNYLDWYLQKPGQSPQLLIYLGSTRASGVPDRFSGSGSGTDFTLRISRVEAEDVGVYYCMQALQIPLTFGQGTKLEIK
notes: also called Ab 855; Antibody Number 855
As to B2, the “Neutralization IC50 (RSV subtype A)” value with RSV F on RSV-A2 virus was > 25 µg/mL. For the same molecule, the Kd in experiment [1] was found to be 2.77 nM; in experiment [2], 0.361 nM.

B3: ADI-41588 (antibody, V domains shown)
VH: QVQLVESGPTLVKPTQTLTLTCTFSGFSLSTNGVGVAWIRQPPGKALEWLAIIYWDDDKRYSPSLKSRLTITKDTSKNQVVLTVTDMDPVDTATYYCAHTIGVPAATRFDYWGQGTLVTVSS
VL: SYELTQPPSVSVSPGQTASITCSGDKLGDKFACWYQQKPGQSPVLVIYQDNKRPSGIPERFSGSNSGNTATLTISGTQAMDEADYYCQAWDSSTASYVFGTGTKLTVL
Turning to B3, the “Neutralization IC50 (RSV subtype A)” value with RSV F on RSV-A2 virus is > 25 µg/mL. Further, the results for the Kd in experiment [1] and in experiment [2] were 3.33 nM and 0.505 nM, respectively.

B4: ADI-41593 (antibody, V domains shown)
VH: QVQLVQSGVEVKKPGESLKISCKGSGYSFTNYWIAWVRQMPGKGLEWMGIIYPGDSDTRYSPSFQGQVTISADKSISTAYVQWSSLKASDTAIYYCARGDILTNSGPDAFDIWGQGTMVTVSS
VL: DIQMTQSPSSFSASTGDRVTITCRASQAISSYLAWFQQKPGKAPKLLIYAASTLQSGVPSRFSGSGSGTDFTLTISCLQSEDFATYYCQQYYSYPLTFGGGTKVEIK
notes: also called Ab 867; Antibody Number 867
In the case of B4, the “Neutralization IC50 (RSV subtype A)” value with RSV F on RSV-A2 virus is > 25 µg/mL. Also, the Kd was determined as 1.83 nM in experiment [1] and 0.53 nM in experiment [2].

B5: ADI-41583 (antibody, V domains shown)
VH: QVQLVQSGAEVKKPGSSVKVSCKASGGTFSRHTITWVRQAPGQGLEWMGRIAPIVGFANYAQKFQGRVTITADKSTSTAYMELRSLRSEDTAVYYCARRSEDYYGLDVWGQGTTVTVSS
VL: DIVMTQSPSSLSASVGDRVTITCQASQDISNYLNWYQQKPGKAPKLLIYEASNLETGVPSRFSGSGSGTDFTFTISSLQPEDIATYYCQQYDNLFGGGTKLEIK
As for B5, the “Neutralization IC50 (RSV subtype A)” value in the experiment with RSV F on RSV-A2 virus was > 25 µg/mL. For the same molecule, the Kd in experiment [1] worked out at 0.664 nM; in experiment [2], 0.381 nM.

B6: ADI-41558 (antibody, V domains shown)
VH: EVQLLESGGGLVKPGGSLRLSCEVSGFPFSDYYVSWIRQAPGKGLEWLSYSSRGGIYTNYADSVKGRFTISRDNDKNSLFLQMNSLRAEDTAVYYCARDRSDIWSGRVGFDYWGQGTLVTVSS
VL: DIVMTQSPATLSLSPGERATLSCRASQSVSSSYLAWYQQKPGQAPRLLIYGASSRATGIPDRFSGSGSGTDFTLTISRLEPEDFAVYYCQQYNKSPPGYIFGPGTKVDIK
notes: also called Ab 840; Antibody Number 840
Consider B6, for which the “Neutralization IC50 (RSV subtype A)” value with RSV F on RSV-A2 virus is > 25 µg/mL. In addition, the Kd is 3.02 nM in experiment [1] and 0.7 nM in experiment [2].

B7: ADI-41564 (antibody, V domains shown)
VH: QVQLVQSGAEVKKPGSSVKVSCKAFGGTLRRYALSWVRQAPGQGLEWMGGIIPVFGTRRYAQKFQGRITITADGSTSTASMEVSSLRFEDTAIYYCATVYFDFVSGPPPTYYYYYMDVWGKGTTVTVSS
VL: B6 VL with A9G, N93D, K94S, P96L, P97R, G98V, Y99L, I100T, P103G
notes: also called Ab 844; Antibody Number 844
For the molecule B7, the “Neutralization IC50 (RSV subtype A)” value in the experiment with RSV F on RSV-A2 virus is > 25 µg/mL. Moreover, the Kd in experiment [1] was 4.44 nM; in experiment [2], 0.596 nM.

B8: ADI-41580 (antibody, V domains shown)
VH: QVQLQQWGAGLLKPSETLSLTCAVYGGSFSGYYWSWIRQPPGKGLEWIGEMNHSGGSNYNPSFKSRVTISVDTSKKYFSLNLSSVTAADTAIYYCARTPFYYESTGYYYYYYGMDVWGQGTTVTVSS
VL: DIVMTQTPDSLAVSLGERATINCKSSQSVSHSSNNKNYLSWYQQKPGQPPKLLIYWASIRESEAPDRFTGSGSGTDFTLTISSLQAEDVAVYYCQQYYTAPITFGQGTRLEIK
notes: also called Ab 854; Antibody Number 854
On to B8, for which the “Neutralization IC50 (RSV subtype A)” value in the experiment with RSV F on RSV-A2 virus came out at 1.11 µg/mL. For the same molecule, the Kd in experiment [1] was 2.98 nM; in experiment [2], 1.17 nM.

B9: ADI-41587 (antibody, V domains shown)
VH: QVQLVQSGAGLLKPSETLSLTCAVYGGSFSGYSWSWIRQPPGKGLEWIGEINYSVSTSYNSSLKSRVSISVDTSKNQFSLKLTSVTAADTAVYYCARVGGAVADWGQGTLVTVSS
VL: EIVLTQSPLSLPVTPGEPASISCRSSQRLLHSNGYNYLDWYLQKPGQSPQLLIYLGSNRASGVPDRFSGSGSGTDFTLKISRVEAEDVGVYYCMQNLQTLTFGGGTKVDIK
On to B9, for which the “Neutralization IC50 (RSV subtype A)” value in the experiment with RSV F on RSV-A2 virus came out at 0.664 µg/mL. Also, the Kd amounted to 1.4 nM in experiment [1] and 2.09 nM in experiment [2].

B10: ADI-41569 (antibody, V domains shown)
VH: EVQLLESGAEVKKPGSSVKVSCKASGGTFSTYAISWVRQAPGQGLEWMGGIIPVLGTTKYAQKFQDRVTITADESTSTAYMDLSGLRSDDTAVYYCARGVWGDCGRASCLFDWYFDLWGRGTLVTVSS
VL: EIVMTQSPATLSVSPGERVTLSCSASQTVSSNLAWYQQKPGQAPRLLIYGASIRATDIPARFSGSGSRTEFTLTISSLQSEDFAVYYCQQYNNRPPLTFGGGTKVEIK
notes: also called Ab 847; Antibody Number 847
In the case of B10, the “Neutralization IC50 (RSV subtype A)” value in the experiment with RSV F on RSV-A2 virus was > 25 µg/mL. Also, the dissociation constant Kd in experiment [1] was found to be 3.3 nM; in experiment [2], 1.61 nM.

B11: ADI-41561 (antibody, V domains shown)
VH: QVQLVQSGPTLVKPTQTLTLTCSFSGFSLTNTGVGVGWIRQPPGKALEWLALIYWDDDKRYRPSLKSRLTITKDTSKSQVVLTMTNMDPLDTATYYCAHRRSAYDPIYFDYWGQGALVTVSS
VL: DIRVTQSPSSVSASVGDRVTITCRASRSINNWLAWYQQKPGKAPKLLIYAASSLQSGVPSRFSGSGYGTDFTLTISSLQPEDFATYYCQQAHSFPSITFGQGTRLEIK
As to B11, the “Neutralization IC50 (RSV subtype A)” value with RSV F on RSV-A2 virus is > 25 µg/mL. Besides, the figures for the Kd in experiment [1] and in experiment [2] were 3.33 nM and 0.516 nM, respectively.

B12: ADI-41592 (antibody, V domains shown)
VH: EVQLVESGSELKKPGASVKVSCKASGYTFRTYVMNWVRQAPGQGLEWMGWINTNTGNPTYAQGFTGRFVFSLDTSVSTAYLQISSLKAEDTAVYYCARESIDDYDSSGYGRTFDYWGQGTLVTVSS
VL: SYELTQPPSVSVSPGQTASIPCSGDKVGKTYVYWYQQTPGQSPGLVIYQDTKRPSGIPERFSGSSSGNTATLTISGTQTMDEADYYCQAWDTSTASYVFGTGTKLTVL
notes: also called Ab 866; Antibody Number 866
With B12, the “Neutralization IC50 (RSV subtype A)” value in the experiment with RSV F on RSV-A2 virus was > 25 µg/mL. Further, the Kd in experiment [1] was 3.74 nM; in experiment [2], 0.44 nM.

B13: ADI-41570 (antibody, V domains shown)
VH: QVQLVQSGAEVKKPGSSVKVSCMASGGTFSNSAINWVRQAPGQGLEWMGGTIPIFGAANYAQRFQARVTITADKSTSTAYMELTSLRSDDTAVYYCVRTPHRSSDHIWGSYRYFDSWGQGTLVTVSS
VL: QSVVTQEPSVSAAPGQKITISCSGSTSNIGINYVSWYQQFPGTAPKLLIYDNDKRPSGIPDRFSGSKSGTSATLGITGLQAGDEADYYCGTWDSSLSAGHIFGGGTKVTVL
notes: also called Ab 848; Antibody Number 848
For B13, in the experiment with RSV F on RSV-A2 virus, the “Neutralization IC50 (RSV subtype A)” value worked out at 25 µg/mL. The Kd in experiment [1] turned out to be 2.97 nM; in experiment [2], 1.12 nM.

B14: ADI-41586 (antibody, V domains shown)
VH: QVQLQQWGAGLLKPSETLSLTCAVYGGSFSGYSWSWIRQPPGKGLEWIGDIDHDGSTYYNSSLKSRVTMSIDTSKNQFSLKLSSVTAADTAVYYCARVGGNSGYWGQGTLVTVSS
VL: not shown
notes: also called Ab 860; Antibody Number 860
For B14, the “Neutralization IC50 (RSV subtype A)” value in the experiment with RSV F on RSV-A2 virus turned out to be 0.402 µg/mL. For the same molecule, the Kd in experiment [1] turned out to be 0.538 nM; in experiment [2], 0.779 nM.
